Here are results for 1 molecule from article PMC4006906 (PLoS Pathogens, 2014).

The target in this test is T1, A/California/04/2009 (H1CA0409) recombinant HA (Influenza A virus, A/California/04/2009 …, UniProt C3W5S1, strain).
T1 construct: source: supplied by BEI Resources
Nature of the test: ELISA. Conditions: both partners purified. For orientation: ELISA stands for enzyme-linked immunosorbent assay.

B1: F10 scFv (wild type) (scFv, V domains shown)
VH: QVQLVQSGAEVKKPGSSVKVSCTSSEVTFSSFAISWVRQAPGQGLEWLGGISPMFGTPNYAQKFQGRVTITADQSTRTAYMDLRSLRSEDTAVYYCARSPSYICSGGTCVFDHWGQGTLVTVSS
VL: QPGLTQPPSVSKGLRQTATLTCTGNSNNVGNQGAAWLQQHQGHPPKLLSYRNNDRPSGISERFSASRSGNTASLTITGLQPEDEADYYCSTWDSSLSAVVFGGGTKLTVL
notes: also called F10 wt; construct #1; source: E. coli BL21 (DE3), purified (streptactin beads)
In the case of B1, the binding result was “binds”.
